# Results published in publication PMC10354202 (2023).
# T1: talin VBS (UniProt Q9Y490, talin stretched above ~10 pN)
# T1 chain: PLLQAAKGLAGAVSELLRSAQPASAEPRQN
# T2: talin VBS (UniProt Q9Y490, talin stretched at low force, matured complex)
# T2 chain: T1 chain
# T3: talin VBS (UniProt Q9Y490, talin stretched at low force (up to ~9-10 pN))
# T3 chain: T1 chain
# B1: vinculin (protein)
# chain: MPVFHTRTIESILEPVAQQISHLVIMHEEGEVDGKAIPDLTAPVAAVQAAVSNLVRVGKETVQTTEDQILKRDMPPAFIKVENACTKLVQAAQMLQSDPYSVPARDYLIDGSRGILSGTSDLLLTFDEAEVRKIIRVCKGILEYLTVAEVVETMEDLVTYTKNLGPGMTKMAKMIDERQQELTHQEHRVMLVNSMNTVKELLPVLISAMKIFVTTKNSKNQGIEEALKNRNFTVEKMSAEINEIIRVLQLTSWDEDAWASKDTEAMKRALASIDSKLNQAKGWLRDPSASPGDAGEQAIRQILDEAGKVGELCAGKERREILGTCKMLGQMTDQVADLRARGQGSSPVAMQKAQQVSQGLDVLTAKVENAARKLEAMTNSKQSIAKKIDAAQNWLADPNGGPEGEEQIRGALAEARKIAELCDDPKERDDILRSLGEISALTSKLADLRRQGKGDSPEARALAKQVATALQNLQTKTNRAVANSRPAKAAVHLEGKIEQAQRWIDNPTVDDRGVGQAAIRGLVAEGHRLANVMMGPYRQDLLAKCDRVDQLTAQLADLAARGEGESPQARALASQLQDSLKDLKARMQEAMTQEVSDVFSDTTTPIKLLAVAATAPPDAPNREEVFDERAANFENHSGKLGATAEKAAAVGTANKSTVEGIQASVKTARELTPQVVSAARILLRNPGNQAAYEHFETMKNQWIDNVEKMTGLVDEAIDTKSLLDASEEAIKKDLDKCKVAMANIQPQMLVAGATSIARRANRILLVAKREVENSEDPKFREAVKAASDELSKTISPMVMDAKAVAGNISDPGLQKSFLDSGYRILGAVAKVREAFQPQEPDFPPPPPDLEQLRLTDELAPPKPPLPEGEVPPPRPPPPEEKDEEFPEQKAGEVINQPMMMAARQLHDEARKWSSKPGIPAAEVGIGVVAEADAADAAGFPVPPDMEDDYEPELLLMPSNQPVNQPILAAAQSLHREATKWSSKGNDIIAAAKRMALLMAEMSRLVRGGSGTKRALIQCAKDIAKASDEVTRLAKEVAKQCTDKRIRTNLLQVCERIPTISTQLKILSTVKATMLGRTNISDEESEQATEMLVHNAQNLMQSVKETVREAEAASIKIRTDAGFTLRWVRKTPWYQ
# Experiments:
# Assay in all cases: magnetic tweezers
# [1] = target: T1, talin VBS
# [2] = target: T2, talin VBS
# [3] = target: T3, talin VBS
binder,measurement,setting,value
B1,Kd,[1],~5 nM
same,Kd,[2],~0.004 nM
same,Kd,[3],~0.2 nM
